B1: E105-GS10-I1 pegylated (designed binder)
E/I tandem 10Fn3 chain: MGVSDVPRDLEVVAATPTSLLISWDAPTSRYQYYRITYGETGGNSPVQEFTVPGGLSTATISGLKPGVDYTITVYAVTDYKPHADGPHTYHESPISINYRTEIDKGSGSGSGSGSGSGSGSGSGSVSDVPRDLEVVAATPTSLLISWSARLKVARYYRITYGETGGNSPVQEFTVPKNVYTATISGLKPGVDYTITVYAVTRFRDYQPISINYRTEIDKPCQHHHHHH
modifications: Cys of the C-terminal Cys tail conjugated to 40 kDa branched PEG
B2: E105-GS10-I1 pegylated (designed binder)
chain: B1 E/I tandem 10Fn3 chain
modifications: chain 1 pos 221: Cys carrying a maleimide-linked 40 kDa branched PEG, written C
notes: lower row of the two named E105-GS10-I1 pegylated
B3: E90-GS10-I1 pegylated (designed binder)
E/I tandem 10Fn3 chain: MGVSDVPRDLEVVAATPTSLLISWYWEGLPYQYYRITYGETGGNSPVQEFTVPRDVNTATISGLKPGVDYTITVYAVTDWYNPDTHEYIYHTIPISINYRTEIDKGSGSGSGSGSGSGSGSGSGSVSDVPRDLEVVAATPTSLLISWSARLKVARYYRITYGETGGNSPVQEFTVPKNVYTATISGLKPGVDYTITVYAVTRFRDYQPISINYRTEIDKPCQHHHHHH
modifications: Cys of the C-terminal Cys tail conjugated to 40 kDa branched PEG
B4: E96-GS10-I1 pegylated (designed binder)
E/I tandem 10Fn3 chain: MGVSDVPRDLEVVAATPTSLLISWASNRGTYQYYRITYGETGGNSPVQEFTVPGGVSTATISGLKPGVDYTITVYAVTDAFNPTTHEYNYFTTPISINYRTEIDKGSGSGSGSGSGSGSGSGSGSVSDVPRDLEVVAATPTSLLISWSARLKVARYYRITYGETGGNSPVQEFTVPKNVYTATISGLKPGVDYTITVYAVTRFRDYQPISINYRTEIDKPCQHHHHHH
modifications: Cys of the C-terminal Cys tail conjugated to 40 kDa branched PEG
B5: E85-GS10-I1 pegylated (designed binder)
E/I tandem 10Fn3 chain: MGVSDVPRDLEVVAATPTSLLISWTQGSTHYQYYRITYGETGGNSPVQEFTVPGMVYTATISGLKPGVDYTITVYAVTDYFDRSTHEYKYRTTPISINYRTEIDKGSGSGSGSGSGSGSGSGSGSVSDVPRDLEVVAATPTSLLISWSARLKVARYYRITYGETGGNSPVQEFTVPKNVYTATISGLKPGVDYTITVYAVTRFRDYQPISINYRTEIDKPCQHHHHHH
modifications: Cys of the C-terminal Cys tail conjugated to 40 kDa branched PEG
B6: E5-GS10-I1 pegylated (designed binder)
E/I tandem 10Fn3 chain: B1 E/I tandem 10Fn3 chain with D25W, T28V, S29D, G54R, G55D, L56V, S57Y
modifications: Cys of the C-terminal Cys tail conjugated to 40 kDa branched PEG
B7: I1-GS10-E112 pegylated (designed binder)
I/E tandem 10Fn3 chain: MGVSDVPRDLEVVAATPTSLLISWSARLKVARYYRITYGETGGNSPVQEFTVPKNVYTATISGLKPGVDYTITVYAVTRFRDYQPISINYRTEIDKGSGSGSGSGSGSGSGSGSGSVSDVPRDLEVVAATPTSLLISWDAGAVTYQYYRITYGETGGNSPVQEFTVPGGVRTATISGLKPGVDYTITVYAVTDYKPHADGPHTYHEYPISINYRTEIDKPCQHHHHHH
modifications: Cys of the C-terminal Cys tail conjugated to 40 kDa branched PEG
B8: E93 (designed binder)
10Fn3 domain: MGVSDVPRDLEVVAATPTSLLISWDSGRGSYQYYRITYGETGGNSPVQEFTVPGGVRTATISGLKPGVDYTITVYAVTDYKPHADGPHTYHEYPISINYRTEIDKPSQ
B9: E94 (designed binder)
10Fn3 domain: B8 10Fn3 domain with D25N, S26N, R28G, G29R, S30N, G54Y, G55D, R57Y
B10: E97 (designed binder)
10Fn3 domain: B8 10Fn3 domain with D25L, S26P, R28K, G29L, S30R, G54H, G55D, V56L, Y93S
B11: E98 (designed binder)
10Fn3 domain: B8 10Fn3 domain with S26A, G27P, R28T, G29S, S30R, Y80H
B12: E92 (designed binder)
10Fn3 domain: MGVSDVPRDLEVVAATPTSLLISWQAANHSYQYYRITYGETGGNSPVQEFTVPGGVRTATISGLKPGVDYTITVYAVTDFFNPVTHEYKYRTIPISINYRTEIDKPSQ
B13: E91 (designed binder)
10Fn3 domain: MGVSDVPRDLEVVAATPTSLLISWSAPWRTYQYYRITYGETGGNSPVQEFTVPYDVYTATISGLKPGVDYTITVYAVTDYLNPNTLEYTYQRIPISINYRTEIDKPSQ
B14: E95 (designed binder)
10Fn3 domain: MGVSDVPRDLEVVAATPTSLLISWVVPQGMYQYYRITYGETGGNSPVQEFTVPGGVSTATISGLKPGVDYTITVYAVTDYFNPATHEYNYHSIPISINYRTEIDKPSQ
B15: E96 (designed binder)
10Fn3 domain: B14 10Fn3 domain with V25A, V26S, P27N, Q28R, M30T, Y80A, A84T, H91F, S92T, I93T
B16: E90 (designed binder)
10Fn3 domain: MGVSDVPRDLEVVAATPTSLLISWYWEGLPYQYYRITYGETGGNSPVQEFTVPRDVNTATISGLKPGVDYTITVYAVTDWYNPDTHEYIYHTIPISINYRTEIDKPSQ

Positions count from the first letter of the chain named.

Usually Kd stands for the concentration at which binding is half-saturated. A word on the IC50: it is the concentration that inhibits the measured activity by half. Read a high IC50 as weaker potency in that assay.

For one assay, the target named is T1, EGFR on the surface of human tumour cells (A431, H292) (human, UniProt P00533 25-1210). Kind of assay: cell-based or functional assay.
Take B1: the “IC50, EGF-induced EGFR phosphorylation, A431 cells, In Cell Western” value worked out at 56 nM; the “IC50, EGF-induced ERK phosphorylation, A431 cells, In Cell Western” value was 61 nM; the “IC50, EGF-stimulated EGFR phosphorylation, H292 cells, ELISA” value came to 15 nM.
For B2, in that order: 61 nM, 49 nM and 16 nM.
For B3, in that order: 65 nM, 63 nM and 10 nM.
For B4, in that order: 61 nM, 54 nM and 10 nM.
As for B5, the “IC50, EGF-induced EGFR phosphorylation, A431 cells, In Cell Western” value was found to be 15 nM; the “IC50, EGF-induced ERK phosphorylation, A431 cells, In Cell Western” value was 15 nM; the “IC50, EGF-stimulated EGFR phosphorylation, H292 cells, ELISA” value was found to be 4 nM.

The next assay deals with IGF-IR on human tumour cells (H292, MCF-7, RH41) (human, UniProt P08069 31-1367). Kind of assay: cell-based or functional assay.
For the molecule B1, the “IC50, IGF1-stimulated IGFR phosphorylation, H292 cells, ELISA” value is 0.5 nM.
Still for that read-out and setting: the value for B2 was 0.5 nM; that for B6 was 0.4 nM; that for B3 was 0.4 nM.
The same measure, in the same setting: in the case of B4 it was 0.4 nM.
The same measure, in the same setting: the value for B7 was 0.3 nM; that for B5 was 0.3 nM.

In a further assay the target is T1, EGFR on the surface of human tumour …. Kind of assay: cell-based or functional assay. This is another data set of the same source.
Turning to B8, the “% inhibition of EGFR phosphorylation at 100 nM binder, cell-based assay” value (“% inhibition of EGFR phosphorylation” for short) is 76.9%.
For the molecule B9, the “% inhibition of EGFR phosphorylation” value came to 78.7%.
B10: the “% inhibition of EGFR phosphorylation” value was 89.3%.
The same measure, in the same setting: the value for B11 was 75.8%.
Still for that read-out and setting: the value for B12 was 88.5%.
Same read-out and setting: in the case of B13 it was 84.7%.
In the case of B14, the “% inhibition of EGFR phosphorylation” value was determined as 98%.
Still for that read-out and setting: in the case of B15 it was 91.7%; in that of B16, 81.3%.

The next assay has as its target T2, Recombinant human EGFR-Fc (aa 1-645 of the extracellular domain of human EGFR fused to human Fc) (human, UniProt P00533 25-645).
T2 construct: range 1-645; bought from R&D Systems; also called EGFR645-Fc; EGFR-Fc (HER-1); not shown: human Fc
Experiment: not given
Turning to B1, the Kd was determined as 9.28 nM.
With B2, the Kd was found to be 7.65 nM.
The same measure, in the same setting: in the case of B3 it was 13.5 nM; in that of B4, 24.2 nM; in that of B5, 4.76 nM.

The next assay concerns the target T3, IGF1R-Fc (extracellular domain of human IGF1R aa 1-932 fused to hinge and constant regions of human IgG1) (human, UniProt P08069 31-932).
T3 construct: range 1-932; made in house by transient transfection, purified on Protein A; also called IGF-IR-Fc; not shown: hinge and constant regions of human IgG1
Experiment: not given
Take B1: binding was put at a Kd of 1.35 nM.
On the same count and under the same terms, the value for B2 was 1.19 nM.
Same read-out and setting: the value for B6 was 1.16 nM.
As to B3, the Kd came to 1.5 nM.
B4 yielded a Kd of 0.96 nM.
In the case of B5, the Kd was determined as 0.75 nM.

The target in the next assay is T1, EGFR on the surface of human tumour ….
Experiment: not given
In turn, B1 registered a half-maximal inhibitory concentration (IC50) of 75 nM.
B2 returned an IC50 of 93.8 nM.
The same measure, in the same setting: in the case of B3 it was 69.1 nM; in that of B4, 43.8 nM.
B5 had an IC50 of 65.9 nM. This IC50 is about 1.5-fold higher than that of the molecule before.

(Values after patent US20180037631A1 (Bristol-Myers Squibb, published 2018).)
